The experiment deals with human IL-15Rα (captured on the surface plasmon resonance sensor chip) (human) (UniProt Q13261). Briefly: SPR. A general note: Surface plasmon resonance follows binding to a sensor surface in real time, without labels.
Chain of UniProt Q13261 (Q13261 31-267): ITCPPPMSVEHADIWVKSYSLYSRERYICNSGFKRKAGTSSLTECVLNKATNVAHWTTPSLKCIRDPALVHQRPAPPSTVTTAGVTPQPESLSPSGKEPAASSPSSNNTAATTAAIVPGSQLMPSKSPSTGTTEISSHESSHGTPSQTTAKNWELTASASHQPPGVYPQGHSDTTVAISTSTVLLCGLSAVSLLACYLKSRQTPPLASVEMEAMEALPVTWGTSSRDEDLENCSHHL

“NKTR-255, polyethylene glycol-conjugate of recombinant human interleukin-15 (from UniProt P40933 49-162) (ligand)”: the dissociation constant (Kd) worked out at 0.085 nM, the koff stood at 6.7e-05 s⁻¹ and the kon was 780000 M⁻¹ s⁻¹.
Substance “recombinant human interleukin-15 (rhIL-15) (from UniProt P40933 49-162) (ligand)” yielded a Kd of 0.019 nM, a koff of 9.3e-05 s⁻¹ and a kon of 5.1e+06 M⁻¹ s⁻¹.

For orientation: Kd means the equilibrium constant for the complex coming apart. A high value points to weaker binding. As a reminder, the koff is the first-order rate constant of dissociation. Low readings indicate slow dissociation, high ones fast dissociation. In general, kon refers to a measure of how fast the partners come together.
